This note sets out measurements from patent US20060257938A1, “Method of screening for drugs that block ligand binding to a lipid binding protein” (priority 2005, published 2006).

Residue numbers refer to the chain shown, from its start. Where “and” joins values, the source holds several entries; their conditions need not be identical. Equal values may be shown once.

The chains are these.
B1: 31F2, 72A (protein, listed as Rattus norvegicus)
chain: AFDGTWKVDRNENYEKFMEKMGINVVKRKLFAHDNLKLTITQEGNKFTVKESSNFRNIDVVFELGVDFAYSAADGTELTGTWTMEGNKLVGKFKRVDNGKELIAVREISGNELIQTYTYEGVEAKRIFKKE
modifications: PEPTIDE (1)...(131) wild-type rat intestinal fatty acid binding protein
B2: 31T2, 72A (protein, listed as Rattus norvegicus)
chain: B1 chain with F31T
modifications: PEPTIDE (1)...(131) wild-type rat intestinal fatty acid binding protein
B3: 31Q3, 72A (protein, listed as Rattus norvegicus)
chain: B1 chain with F31Q
modifications: PEPTIDE (1)...(131) wild-type rat intestinal fatty acid binding protein
B4: 31Y2, 72A (protein, listed as Rattus norvegicus)
chain: B1 chain with F31Y
modifications: PEPTIDE (1)...(131) wild-type rat intestinal fatty acid binding protein
B5: 31K2, 72A (protein, listed as Rattus norvegicus)
chain: B1 chain with F31K
modifications: PEPTIDE (1)...(131) wild-type rat intestinal fatty acid binding protein
B6: 31I1, 72A (protein, listed as Rattus norvegicus)
chain: B1 chain with F31I
modifications: PEPTIDE (1)...(131) wild-type rat intestinal fatty acid binding protein
B7: 31V2, 72A (protein, listed as Rattus norvegicus)
chain: B1 chain with F31V
modifications: PEPTIDE (1)...(131) wild-type rat intestinal fatty acid binding protein
B8: 34E, 72A (protein, listed as Rattus norvegicus)
chain: B1 chain with F31G, D34E
modifications: PEPTIDE (1)...(131) wild-type rat intestinal fatty acid binding protein
B9: 31Y1, 72A (protein, listed as Rattus norvegicus)
chain: B1 chain with F31Y
modifications: PEPTIDE (1)...(131) wild-type rat intestinal fatty acid binding protein
B10: 34G, 72A (protein, listed as Rattus norvegicus)
chain: B1 chain with F31G, D34G
modifications: PEPTIDE (1)...(131) wild-type rat intestinal fatty acid binding protein
B11: 34A, 72A (protein, listed as Rattus norvegicus)
chain: B1 chain with F31G, D34A
modifications: PEPTIDE (1)...(131) wild-type rat intestinal fatty acid binding protein
B12: 34H, 72A (protein, listed as Rattus norvegicus)
chain: B1 chain with F31G, D34H
modifications: PEPTIDE (1)...(131) wild-type rat intestinal fatty acid binding protein
B13: 34C, 72A (protein, listed as Rattus norvegicus)
chain: B1 chain with F31G, D34C
modifications: PEPTIDE (1)...(131) wild-type rat intestinal fatty acid binding protein
B14: 31R1, 72A (protein, listed as Rattus norvegicus)
chain: B1 chain with F31R
modifications: PEPTIDE (1)...(131) wild-type rat intestinal fatty acid binding protein
B15: 31N2, 72A (protein, listed as Rattus norvegicus)
chain: B1 chain with F31N
modifications: PEPTIDE (1)...(131) wild-type rat intestinal fatty acid binding protein
B16: 31M2, 72A (protein, listed as Rattus norvegicus)
chain: B1 chain with F31M
modifications: PEPTIDE (1)...(131) wild-type rat intestinal fatty acid binding protein
B17: 34K, 72A (protein, listed as Rattus norvegicus)
chain: B1 chain with F31G, D34K
modifications: PEPTIDE (1)...(131) wild-type rat intestinal fatty acid binding protein
B18: 31P1, 72A (protein, listed as Rattus norvegicus)
chain: B1 chain with F31P
modifications: PEPTIDE (1)...(131) wild-type rat intestinal fatty acid binding protein
B19: 34N, 72A (protein, listed as Rattus norvegicus)
chain: B1 chain with F31G, D34N
modifications: PEPTIDE (1)...(131) wild-type rat intestinal fatty acid binding protein
B20: 31W2, 72A (protein, listed as Rattus norvegicus)
chain: B1 chain with F31W
modifications: PEPTIDE (1)...(131) wild-type rat intestinal fatty acid binding protein

One assay is described as follows: Probe fluorescence ratio response to arachidonic acid relative to ADIFAB2. In kind it is binding. Particulars: arachidonic acid; response relative to ADIFAB2. Summed up:
(§1)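 Each fatty acid's response was expressed relative to ADIFAB2, the rI-FABP-L72A probe, as ΔR/ΔRreference. ΔR is the change in the background-corrected two-wavelength intensity ratio R=Fλ1/Fλ2 from its analyte-free baseline R0. Emission was read near about 420-480 nm for unbound and about 495-580 nm for FFA-bound probe.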
As to B1, the “DR/DR AA” value turned out to be 1.41.

B2: the “DR/DR AA” value worked out at 0.65.

Consider B3, for which the “DR/DR AA” value amounted to 1.02.

With B4, the “DR/DR AA” value is reported as 0.37.

As for B5, the “DR/DR AA” value was determined as 0.85.

As for B6, the “DR/DR AA” value was determined as 0.30.

As for B7, the “DR/DR AA” value came to 0.40.

As for B8, the “DR/DR AA” value is 0.62 and 0.618.

B9: the “DR/DR AA” value worked out at 1.78.

B10: the “DR/DR AA” value is recorded as 0.54.

On to B11, for which the “DR/DR AA” value was determined as 0.58.

For B12, the “DR/DR AA” value stood at 0.65.

With B13, the “DR/DR AA” value worked out at 0.34.

Take B14: the “DR/DR AA” value turned out to be 0.25.

Turning to B15, the “DR/DR AA” value was 0.88.

On to B16, for which the “DR/DR AA” value was found to be 0.52.

With B17, the “DR/DR AA” value is on record as 0.43.

On to B18, for which the “DR/DR AA” value amounted to 0.25.

Regarding B19, the “DR/DR AA” value was found to be 1.19.

As for B20, the “DR/DR AA” value was determined as 0.99.

Another assay can be described thus: Probe fluorescence ratio response to palmitic acid relative to ADIFAB2. The assay is classed as binding. The settings on record: response relative to ADIFAB2. In a few lines:
as §1
Consider B1, for which the “DR/DR PA” value is 1.21.

In the case of B2, the “DR/DR PA” value was determined as 0.41.

Turning to B3, the “DR/DR PA” value amounted to 1.04.

Turning to B4, the “DR/DR PA” value came out at 0.17.

On to B5, for which the “DR/DR PA” value came to 0.42.

Take B6: the “DR/DR PA” value amounted to 0.09.

With B7, the “DR/DR PA” value turned out to be 0.21.

Turning to B8, the “DR/DR PA” value is 0.48 and 0.482.

Take B9: the “DR/DR PA” value stood at 1.10.

With B10, the “DR/DR PA” value was determined as 0.18.

As to B11, the “DR/DR PA” value is reported as 0.33.

Take B12: the “DR/DR PA” value is reported as 0.38.

With B13, the “DR/DR PA” value was found to be 0.18.

As for B14, the “DR/DR PA” value is given as 0.34.

Turning to B15, the “DR/DR PA” value is recorded as 0.50.

As to B16, the “DR/DR PA” value came to 0.46.

For B17, the “DR/DR PA” value worked out at 0.26.

With B18, the “DR/DR PA” value was found to be 0.23.

As to B19, the “DR/DR PA” value was found to be 1.11.

For the molecule B20, the “DR/DR PA” value was determined as 0.62.

The nature of another assay: Probe fluorescence ratio response to linolenic acid relative to ADIFAB2. The assay is classed as binding. The settings on record: response relative to ADIFAB2. In a few lines:
as §1
B1: the “DR/DR LNA” value came to 1.62.

For B2, the “DR/DR LNA” value was found to be 0.91.

Take B3: the “DR/DR LNA” value turned out to be 1.49.

In the case of B4, the “DR/DR LNA” value came out at 0.80.

Take B5: the “DR/DR LNA” value was determined as 0.90.

On to B6, for which the “DR/DR LNA” value was determined as 0.41.

In the case of B7, the “DR/DR LNA” value was 0.78.

Regarding B8, the “DR/DR LNA” value is 0.57 and 0.571.

As to B9, the “DR/DR LNA” value worked out at 1.61.

As for B10, the “DR/DR LNA” value is 0.29.

As to B11, the “DR/DR LNA” value is recorded as 0.57.

As to B12, the “DR/DR LNA” value came to 0.72.

Consider B13, for which the “DR/DR LNA” value turned out to be 0.33.

Regarding B14, the “DR/DR LNA” value is 0.44.

For the molecule B15, the “DR/DR LNA” value was 1.06.

Consider B16, for which the “DR/DR LNA” value was determined as 0.57.

Take B17: the “DR/DR LNA” value was found to be 1.33.

Take B18: the “DR/DR LNA” value was 0.27.

Turning to B19, the “DR/DR LNA” value turned out to be 1.18.

Consider B20, for which the “DR/DR LNA” value amounted to 1.03.

The nature of the next assay: Probe fluorescence ratio response to oleic acid relative to ADIFAB2. The assay is classed as binding. The settings on record: response relative to ADIFAB2. Summed up: as §1
On to B1, for which the “DR/DR OA” value is given as 1.43.

With B2, the “DR/DR OA” value worked out at 0.53.

As to B3, the “DR/DR OA” value is on record as 1.31.

For the molecule B4, the “DR/DR OA” value is recorded as 0.01.

B5: the “DR/DR OA” value is listed as 0.97.

In the case of B6, the “DR/DR OA” value is reported as −0.21.

On to B7, for which the “DR/DR OA” value is reported as 0.08.

B8: the “DR/DR OA” value is 0.49 and 0.486.

For B9, the “DR/DR OA” value is 1.55.

Regarding B10, the “DR/DR OA” value was found to be 0.13.

For B11, the “DR/DR OA” value is given as 0.49.

Take B12: the “DR/DR OA” value was determined as 0.52.

Consider B13, for which the “DR/DR OA” value was 0.30.

For B14, the “DR/DR OA” value amounted to 0.23.

As to B15, the “DR/DR OA” value is listed as 0.91.

As to B16, the “DR/DR OA” value was determined as 1.08.

With B17, the “DR/DR OA” value came to 0.41.

Consider B18, for which the “DR/DR OA” value came out at 0.22.

Regarding B19, the “DR/DR OA” value is 1.16.

For the molecule B20, the “DR/DR OA” value came out at 0.87.

A short description of a further assay: Probe fluorescence ratio response to linoleic acid relative to ADIFAB2. In kind it is binding. The settings on record: response relative to ADIFAB2. In a few lines:
as §1
B1: the “DR/DR LA” value was determined as 1.76.

Consider B2, for which the “DR/DR LA” value is recorded as 0.75.

With B3, the “DR/DR LA” value amounted to 1.47.

For the molecule B4, the “DR/DR LA” value is 0.36.

As for B5, the “DR/DR LA” value was 0.91.

Regarding B6, the “DR/DR LA” value is 0.17.

For B7, the “DR/DR LA” value was determined as 0.38.

As for B8, the “DR/DR LA” value was 0.60 and 0.604.

In the case of B9, the “DR/DR LA” value was 1.75.

As to B10, the “DR/DR LA” value was found to be 0.33.

As for B11, the “DR/DR LA” value came out at 0.57.

Turning to B12, the “DR/DR LA” value was 0.74.

Consider B13, for which the “DR/DR LA” value stood at 0.59.

Regarding B14, the “DR/DR LA” value is 0.40.

Turning to B15, the “DR/DR LA” value is 1.04.

For the molecule B16, the “DR/DR LA” value came out at 0.41.

Take B17: the “DR/DR LA” value was 0.61.

Regarding B18, the “DR/DR LA” value stood at 0.30.

For the molecule B19, the “DR/DR LA” value was 1.16.

Regarding B20, the “DR/DR LA” value turned out to be 1.15.
